Measurements as given in the DeepSol protein solubility set.

Experiment: soluble on expression in E. coli; label from the status in PepcDB or PDB records

Sequence | soluble on expression in E. coli
MVDLSRRSMLTGSWRNASNGILPPWARETTYFLAHCLRCDACIQACEADILQRGAGGYPSVDFKRGECSFCYACAQACTESLFLPRHTRAWDLVFTLTENCLARQSVECHRCQDSCEPMAITFRPTLSGIYQPQLDSQACNGCGACVAICPVSAIKAENHHAH | not soluble
MQKIDLGNNESLVCGVFPNQDGTFTAMTYTKSKTFKTETGARRWLEKHTVS | soluble
MQAKEEKEFTLQERRCLIVWVYTLKPLKQLRRYGLIHYVSRKMKYVVIYMNEENIESNMEKINQLHFVRSVDKSYRPDVEMNFAEKIGTKAAYQEQEDDGYVVEELSTEIRLAENV | not soluble
GAMGSEEKLREVSSQDPVTGLYNRSHFLDLMDAAVQQAVTARKPSTLAYIHLNGYPSLQADHGLSGIDLLLGQLAGLMREQFGEEADLARFGDSIFAALFKGKTPEQAQAALQRLLKKVENHLFELNGRSAQATLSIGVAGLDEKTAKAQDVMNRAHRCADDAARKGGSQIKQYNPAEELAAAAQRGDVIAILQQALETNSFRLLFQPVISLRGDSHENYEVLLRLLNPQGQEVPPAEFLHAAKEAGLAEKIDRWVILNSIKLLAEHRAKGHQTKLFVHLSSASLQDPGLLPWLGVALKAARLPPESLVFQISEADATSYLKQAKQLTQGLATLHCQAAISQFGCSLNPFNALKHLTVQFIKIDGSFVQDLNQVENQEILKGLIAELHEQQKLSIVPFVESASVLATLWQAGATYIQGYYLQGPSQAMDYDFSSGDE | soluble
MGSDKIHHHHHHMLNYSLRPENRGKNLESSWQYMFKTYPYLKPWIDSLKQNQALKDTFIYSPDHVKLHAYYVASSRPTAKTAVIVHGYTDNAIRMMMIGYLYNKKLDFNILLPDLRDTGLSGGNAIQMGWLDRKDVTQWMEVANRIYGDSTSMVVHGISMGAATTMMVSGEPQPDYVKCFVEDCGYTSVWDQFSKELKAQFGLPQFPLMYTADWLCQLEYGWGFKEASALKQVARCHLPMFFIHGDKDDYVPTWMVYKLYEAKPQPKALWIVPEADHAHSYLFNTEEYTQKVKAFVDKYIQ | not soluble
MGSDKIHHHHHHMITIVKKVRNEIIRKIYRIPLFSNTADIAYQTAITQHTNHLPYLADSDLSLVKNLQEEGIVITSLTELSIPSTMEMLQAAKLLKTKIPINIAGNQNEFTVHASSEQIREHSSIFFWGLQERLLNIVENYLGLSVAYHGAYFRRDINNQVRKKSRLWHLDKEDRKMLKIIIYLNDVNEDGGPFEYIPKSLTSHISKSLKYDDTYIKDETMDQVVSSSYWQPCTGKSGAVIFVDTANIFHRGKLPLSSDRLSIFFDYTTRQPKHPFYCKSSLSNKDLLAVSAELSENQKQCIFWQHNYN | not soluble
MGLFDRLKRVVGANVNDLINKAEDPEKMLEQAILEMQEDLVQLRQGVAQAIAAQKRTEKQYNDAQNEINKWDRNARLALQKGDENLARQALERKKSFTDTSTSLKTSLDQQTIQVDTLKKNLIQLESKISEAKTKKEMLKARITAAKAQEQLGSMVVSMNSSSAMAAFERMEEKVLMQEARAQSTAELVGADLETQFAQLESGSDVDDELAALKASMLPPAPAPQGQLPPSQATTAKPTEPIDSDLEALKRQLDQM | not soluble
MPSKQDVLLLDYWDQWAEAYRINGKSINTVYRYKLFRKHLKSRFDGRKLNSIRPIEWQKFINDFAAGKDRKEKTTRKRPRERSKDIVTKMNSYVRGMVKAAINERILFSDFTFGTKTSGVRSSGKVKVLEHHHHHH | soluble
MRIPRDTGAAEPGQYRTARTPYAREPMRCLSPAHPCKRVVTMVASQLMKTQIALNWIGALIHMSPSNILTLLPSLSLAKRVSARISKTINATPVLRERVASPRSRDARNTMDTKEFEGGALFATTAGSAANLAELSARFVYGDEVDRWDVDVDDEGDPIELAETRGSTFGRNAKFYFSSSPTIKGASRIDDLFSTSDQRYYYVPCPSCGHMQTLEWERLLYSPDFSTVHYQCAGPDCDVLIEEFHKGDMLARGEWRSHADGDGETVGFHLNALYAPLGWQSWSSLAKQYEKAKKAQDRGDLEPMQVFYNTRLAKVWDSAQEQTKAAVLQARALLEDYVLGTMPTGVLSLVSAVDVQANRLEMMVVGCGEGMERWIVDFQVIMGDPADDRTWLALDEKLKERYRHPCGVSLAILATAVDSGGHHTHEVYQFCRVRRWRNVFAIKGASKPGKPVIAQRPSLVDVTWKGQTERNGAELWMVGTDTAKDWIYNRYHLESGPGALHFPKDLPDDFFAQCVAERKVTRYVKGFKRIEWVKGKAERNEALDLLVYSLAMAHYLGLHRYGEHDW | not soluble
MQYKLILNGKTLKGETTTEAVDAATAEKVFKQYANDNGVDGEWTYDDATKTFTVTEGSHHHHHHMHRDSCPLDCKVYVGNLGNNGNKTELERAFGYYGPLRSVWVARNPPGFAFVEFEDPRDAADAVRELDGRTLCGCRVRVELSNGEKR | soluble
MGSDKIHHHHHHMLPSQRHAFSIPEDVIYLDAAYMSPIPNIATEAGCDGVLVKAAPWDMTINSYYDEVERVRELAASFVGASIDDVGVIPATSYGIAVAAANVHVTPGSVIMMMDNEHTSHRYAWYELAEKKGATVVTVPRRPDQEWGSALAAAIKGSTVPVSVVAGTIVHWFEGMSVDIEVVADAAHAVGAALVMDGTQWVGAVPFDVSRIRPDFLSFATYKFLLGPYRLAFLYADKKWQEAGKPIEFHSWNRKGGERPDFYLETMPDYLPGARRFDMGERSDFAVLPIAIRSLELLQSWGSTAVFERLVHLNELIWKEAEARGFEGPRKDLRAPHISVIELGQRFRPDFARNLKDNKAFVTVRGTKMRITPHVYNEEHDIRRLFELVDSLTR | not soluble
MGSDKIHHHHHHMSILTDSNETSHLPDSCSSTLGKQNFHNSLFSVPEAFEFSLVVVNDLVFAKRGKYLTDAELVVMRGALNNLDYEEIAHNSNYTVNYLQRCVAPLLWDTLSETIGNGDRVGKKKLRQILEELNQKYHIQSPFEPYLTLSSSDNSSLIIRGQLPEISNFYGRIHELNLLKELIFKHRCITLVGVAGVGKSSLATKLIVELSKKPRRQFDALIWKSLSHIPSLPELTHELIALIQPSLIPELPLSSSTHNLISILIQQLQSCPCLLVLDGFEALFQRSNFTERLEYSIFLNRLIDEASPSCLLLTTRILPDELNILIKNNPSTIKVFKVNGLDIDAATQLLSDLGLQQEENYQSLINTYWGNPLELKNVVSRIERFFSGSTLKFLENKTTLISLQLQTMLNEMFGQVLSDLQRRIMICITEDLVLTSQPISFAKLLTRLRQLPNLPVSTSELITDLEKLERLSLIESGKDNTTKEITFTLQPVVKKYINTDPAGLVHPSEQFTPYSTTTQKNTHAH | not soluble
MGSDKIHHHHHHMDNVPEPSSEKFRAYRQKLLDQLETSSQGERHRAQYELELMRNSHFVKVGGLLHHYHDSGPENPRGTVLLIHGWDCWWMWWHRIIRELNAAGYRTVAYDMKGHGWSENDPENRYQIADFVRDLDELIRAIGLKDLHIAAFSFGPFVALDYVNTYPNSVRSMVFFNFGYLPNSEFISKVAPATIIFIFNIMMRKLTWWLPAYIFARLVLSRNSVMMHDIKVGFESLGFCASEAIEQTAQQITAMETTQMLPDMVRAVRVPILFAAGEGDVIMTCENARKLQEMTPSGSYLCVPDCGHLITLELPQTAAEIVLQHISSNS | not soluble
GPLGSPEFPHPLQDSWSYYLFQFRKALDWDECLEKVATFSTIEDFWSVLTHTVRPREITYGKDLYMFKSDIMPKWEDPKNENGGRWLINVTARQDVDFLWDELLMLLIGSDWDTDEEDRQICGAVFQPRSRGSKLSVWLTSDNEEETILSIGRRIKERLELEDTIYFQPVSDQRSQTRGSDICTGKYEI | soluble
MRRYLMDYSQYNLEKTGYLKEDFRLFHINDQTKKDFSYHYHDFHKIIVFISGKVTYHIEGKAYHLKPRDILLVSQGAIHKPEIDPSVPYERYIFWIRDDLSCQELNTCFQKANDRSFNLVRADSALQERLKDLLPEIEQTLQNKHFGDTVLRNALFTQFMIYINRIFLRTSSSPDKKTYSSDTQ | not soluble
MRLATKDLAEAIRKGQVRKSSFNTEQLRAIEKGESKIPDYTWHHHQDTGRMQLIREGLHHDTGHIGWEAMNKGR | not soluble
MNRISTSSVNSSFSYSAPAEEAQNRVSSAPTNSSPPGTTTAVAQASEGQKKPGAVLSMQAQRLRQLCESSSYQYRQNALLAKSFDAQRLDINTQAGPSNSPHLNALNKLQQRDFKPAAGGLEIPFTPKSLLGGGKRVYQIGSSSRDVQVCPRGAGAALRQEIADKQLMVNHLTDELQDAIDEANQAEIANTSQQLRQARSDLAELQRRFAVLGNEDRRINQ | not soluble
MKQLTILGSTGSIGCSTLDVVRHNPDSFRVIALVAGKNVARMAEQCLEFSPRYAVMDDTSSAEQLKIMLQQHGSRTEVLSGQQAACEMAALDEVGHVMAAIVGAAGLLPTLAAIRAGKTILLANKESLVTCGRLFMDEVKRSNARLLPVDSEHNAIFQSLPQSIQHNLGYADLEQNGVTSILLTGSGGPFRETPMCDLAAMTPDQACRHPNWSMGRKISVDSATMMNKGLEYIEARWLFNASARQMEVLIHPQSVIHSMVRYQDGSVLAQLGEPDMRTPIAHTMAWPNRVTSGAQPLDFCKLSALTFSAPDYQRYPCLKLAMEAFEQGQAATTALNAANEITVAAFLAQQIRFTDIAGLNLAVLERMDLQEPASVEDVLQVDAIAREVARKQVIRLSR | not soluble
MGHHHHHHSHNCHWTYLKQNRKMAANSSGQGFQNKNRVAILAELDKEKRKLLMQNQSSTNHPGARY | not soluble
MKPKSGAVRRLEKNTMNFVLSDVADAEAEKAIRDPLVAYNLARFGESDKRDLNITIRNDDNSVTGGLVGHTARGWLYVQLLFVPEAMRGQGIAPKLLAMAEEEARKRGCMGAYIDTMNPDALRTYERYGFTKIGSLGPLSSGQSITWLEKRF | soluble
MGSDKIHHHHHHMADNTDNLNSFRALALQVTCHAVNQATDRHEARSLMQNSINRLAQQIAASIAFIGFDCRLIVLPEYFLTGFPMGDSLAGWAEKACIEMAGAEYEALGKIAQKHKIFLAGNAYEVDPNFPGLYFQTCFILDPSGSIVLRYRRLNSLFAPTPHDVWDKYLDCYGLEGVFPVAKTAIGNLAALASEEILYPEVARCLAMRGAEIFVHSTSEVYNKNLTPKDAAKITRAVENMAYVVSANTAGIANIAIPIASADGGSKIIDHRGIVLAETGAGESMAAFAEIDLGALRRDRRRPGLHNLLARQRFELYAESYHQSHFYPANTMLEGEIDRKHFLQTQQATIDRLAQLGII | not soluble
MHHHHHHSSGRENLYFQGERVFGCDLGEHLLNSGFEVPQVLQSCTAFIERYGIVDGIYRLSGVASNIQRLRHEFDSEHVPDLTKEPYVQDIHSVGSLCKLYFRELPNPLLTYQLYEKFSDAVSAATDEERLIKIHDVIQQLPPPHYRTLEFLMRHLSLLADYCSITNMHAKNLAIVWAPNLLRSKQIESACFSGTAAFMEVRIQSVVVEFILNHVDVLFSGRISMAMQE | soluble
MAAVSIVFEAPDNYGGAPAVSKKPIDFDHLAQQTMGDKDLEIEVLQLFSRSARAALHEMAGADNKTVTATAHRLKGSAQAVGASAVSAAAAAVEEKGNDSALIAKLAAAIVEAENFILKLCR | not soluble
GPLGSMINAKTKVIGLIGHPVEHSFSPIMHNAAFKDKGLNYVYVAFDVLPENLKYVIDGAKALGIVGFNVTIPHKIEIMKYLDEIDKDAQLIGAVNTIKIEDGKAIGYNTDGIGARMALEEEIGRVKDKNIVIYGAGGAARAVAFELAKDNNIIIANRTVEKAEALAKEIAEKLNKKFGEEVKFSGLDVDLDGVDIIINATPIGMYPNIDVEPIVKAEKLREDMVVMDLIYNPLETVLLKEAKKVNAKTINGLGMLIYQGAVAFKIWTGVEPNIEVMKNAIIDKITK | soluble
